Source: US20200024330A1

How the values were obtained:
Assay in all cases: cell-based or functional assay
[1] = target: HIV-1 92BR020 envelope glycoprotein (Env) on pseudovirus (HIV-1)
[2] = target: HIV-1 92RW020 envelope glycoprotein (Env) on pseudovirus (HIV-1)
[3] = target: HIV-1 Env of isolate 6535.3 (HIV-1)
[4] = target: HIV-1 Env of isolate 92BR020 (HIV-1)
[5] = target: HIV-1 Env of isolate 92RW008 (clade A), on pseudovirus (HIV-1)
[6] = target: HIV-1 Env of isolate 92RW009 (clade A), on pseudovirus (HIV-1)
[7] = target: HIV-1 Env of isolate 92TH021 (pseudovirus) (HIV-1)
[8] = target: HIV-1 Env of isolate 92UG001 (subtype D), on pseudovirus (HIV-1)
[9] = target: HIV-1 Env of isolate 92UG005 (subtype D), on pseudovirus (HIV-1)
[10] = target: HIV-1 Env of isolate 92UG024 (subtype D), on pseudovirus (HIV-1)
[11] = target: HIV-1 Env of isolate 92UG031 (pseudovirus) (HIV-1)
[12] = target: HIV-1 Env of isolate 92UG037 (pseudovirus) (HIV-1)
[13] = target: HIV-1 Env of isolate 92UG046 (subtype D), on pseudovirus (HIV-1)
[14] = target: HIV-1 Env of isolate 92UG114 (subtype D), on pseudovirus (HIV-1)
[15] = target: HIV-1 Env of isolate 92WR020 (pseudovirus) (HIV-1)
[16] = target: HIV-1 Env of isolate 92WR021 (pseudovirus) (HIV-1)
[17] = target: HIV-1 Env of isolate 92WR024 (pseudovirus) (HIV-1)
[18] = target: HIV-1 Env of isolate 92WR026 (pseudovirus) (HIV-1)
[19] = target: HIV-1 Env of isolate 93TH305 (HIV-1)
[20] = target: HIV-1 Env of isolate 93UG077 (pseudovirus) (HIV-1)
[21] = target: HIV-1 Env of isolate 93WR029 (pseudovirus) (HIV-1)
[22] = target: HIV-1 Env of isolate 94 KE 105 (pseudovirus) (HIV-1)
[23] = target: HIV-1 Env of isolate 94UG103 (pseudovirus) (HIV-1)
[24] = target: HIV-1 Env of isolate 98CN006 (subtype CRF08 BC), on pseudovirus (HIV-1)
[25] = target: HIV-1 Env of isolate 98CN009 (subtype CRF07_BC), on pseudovirus (HIV-1)
[26] = target: HIV-1 Env of isolate APV_13 (HIV-1)
[27] = target: HIV-1 Env of isolate APV_17 (HIV-1)
[28] = target: HIV-1 Env of isolate APV_6 (HIV-1)
[29] = target: HIV-1 Env of isolate CAAN.A2 (HIV-1)
[30] = target: HIV-1 Env of isolate CMU02 (pseudovirus) (HIV-1)
[31] = target: HIV-1 Env of isolate JRFL (HIV-1)
[32] = target: HIV-1 Env of isolate MG RM-A-005 (pseudovirus) (HIV-1)
[33] = target: HIV-1 Env of isolate MG RM-A-006 (pseudovirus) (HIV-1)
[34] = target: HIV-1 Env of isolate MG RM-A-007 (pseudovirus) (HIV-1)
[35] = target: HIV-1 Env of isolate MG RM-A-008 (pseudovirus) (HIV-1)
[36] = target: HIV-1 Env of isolate MG RM-A-009 (pseudovirus) (HIV-1)
[37] = target: HIV-1 Env of isolate MG RM-A-010 (pseudovirus) (HIV-1)
[38] = target: HIV-1 Env of isolate MG RM-A-011 (pseudovirus) (HIV-1)
[39] = target: HIV-1 Env of isolate MG RM-A-012 (pseudovirus) (HIV-1)
[40] = target: HIV-1 Env of isolate MG RM-A-013 (pseudovirus) (HIV-1)
[41] = target: HIV-1 Env of isolate MG RM-A-014 (pseudovirus) (HIV-1)
[42] = target: HIV-1 Env of isolate MGRM-AE-001 (pseudovirus) (HIV-1)
[43] = target: HIV-1 Env of isolate MGRM-AE-002 (pseudovirus) (HIV-1)
[44] = target: HIV-1 Env of isolate MGRM-AE-003 (pseudovirus) (HIV-1)
[45] = target: HIV-1 Env of isolate MGRM-AE-004 (pseudovirus) (HIV-1)
[46] = target: HIV-1 Env of isolate MGRM-AE-005 (pseudovirus) (HIV-1)
[47] = target: HIV-1 Env of isolate MGRM-AE-006 (pseudovirus) (HIV-1)
[48] = target: HIV-1 Env of isolate MGRM-Chronic-B-001 (HIV-1)
[49] = target: HIV-1 Env of isolate MGRM-Chronic-B-002 (HIV-1)
[50] = target: HIV-1 Env of isolate MGRM-Chronic-B-003 (HIV-1)
[51] = target: HIV-1 Env of isolate MGRM-Chronic-B-004 (HIV-1)
[52] = target: HIV-1 Env of isolate MGRM-Chronic-B-008 (HIV-1)
[53] = target: HIV-1 Env of isolate MGRM-D-001 (subtype D), on pseudovirus (HIV-1)
[54] = target: HIV-1 Env of isolate MGRM-D-002 (subtype D), on pseudovirus (HIV-1)
[55] = target: HIV-1 Env of isolate MGRM-D-003 (subtype D), on pseudovirus (HIV-1)
[56] = target: HIV-1 Env of isolate MGRM-D-004 (subtype D), on pseudovirus (HIV-1)
[57] = target: HIV-1 Env of isolate MGRM-D-005 (subtype D), on pseudovirus (HIV-1)
[58] = target: HIV-1 Env of isolate MGRM-D-008 (subtype D), on pseudovirus (HIV-1)
[59] = target: HIV-1 Env of isolate VLGCA1 (pseudovirus) (HIV-1)

Sequence of 4995_E20 (PGT-142) (antibody) (VH): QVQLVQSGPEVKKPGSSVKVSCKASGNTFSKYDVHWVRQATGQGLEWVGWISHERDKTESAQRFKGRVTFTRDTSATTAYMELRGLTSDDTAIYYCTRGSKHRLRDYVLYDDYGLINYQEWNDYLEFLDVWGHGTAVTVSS
Sequence of 4995_E20 (PGT-142) (antibody) (VL): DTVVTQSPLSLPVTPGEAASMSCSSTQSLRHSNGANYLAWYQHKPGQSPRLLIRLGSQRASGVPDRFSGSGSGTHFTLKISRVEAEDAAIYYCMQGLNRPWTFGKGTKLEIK
Sequence of 4995_P16 (PGT-145) (antibody) (VH): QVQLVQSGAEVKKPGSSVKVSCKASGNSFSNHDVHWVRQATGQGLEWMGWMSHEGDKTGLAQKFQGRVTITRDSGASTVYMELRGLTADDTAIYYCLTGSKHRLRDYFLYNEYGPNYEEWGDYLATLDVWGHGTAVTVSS
Sequence of 4995_P16 (PGT-145) (antibody) (VL): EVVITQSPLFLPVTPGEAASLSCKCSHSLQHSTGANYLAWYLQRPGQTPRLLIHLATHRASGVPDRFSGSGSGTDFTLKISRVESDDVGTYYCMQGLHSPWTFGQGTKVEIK

Q: Which results are given for 4995_E20 (PGT-142) (antibody)?
A: IC50 (ug/ml), neutralizing activity [1]: > 10 µg/mL; IC50 (ug/ml), neutralizing activity [2]: > 10 µg/mL; IC50 [3]: > 50 µg/mL; IC50 [4]: 15.1 µg/mL; IC50, single-round pseudovirus neutralization [5]: 0.447 µg/mL; IC50, single-round pseudovirus neutralization [6]: 0.006 µg/mL; IC50 (µg/mL), pseudovirus neutralization [7]: 0.002 µg/mL; IC50, pseudovirus neutralization [8]: > 50 µg/mL; IC50, pseudovirus neutralization [9]: > 50 µg/mL; IC50, pseudovirus neutralization [10]: > 50 µg/mL; IC50 (µg/mL), pseudovirus neutralization [11]: 0.05 µg/mL; IC50 (µg/mL), pseudovirus neutralization [12]: 0.557 µg/mL; IC50, pseudovirus neutralization [13]: > 50 µg/mL; IC50, pseudovirus neutralization [14]: > 50 µg/mL; IC50 (µg/mL), pseudovirus neutralization [15]: 31.5 µg/mL; IC50 (µg/mL), pseudovirus neutralization [16]: > 50 µg/mL; IC50 (µg/mL), pseudovirus neutralization [17]: 0.069 µg/mL; IC50 (µg/mL), pseudovirus neutralization [18]: 1.78 µg/mL; IC50 [19]: 5.86 µg/mL; IC50 (µg/mL), pseudovirus neutralization [20]: > 50 µg/mL; IC50 (µg/mL), pseudovirus neutralization [21]: 0.014 µg/mL; IC50 (µg/mL), pseudovirus neutralization [22]: 0.19 µg/mL; IC50 (µg/mL), pseudovirus neutralization [23]: > 50 µg/mL; IC50, pseudovirus neutralization [24]: > 50 µg/mL; IC50, pseudovirus neutralization [25]: 4 µg/mL; IC50 [26]: > 50 µg/mL; IC50 [27]: 0.628 µg/mL; IC50 [28]: 4.72 µg/mL; IC50 [29]: > 50 µg/mL; IC50 (µg/mL), pseudovirus neutralization [30]: > 50 µg/mL; IC50 [31]: > 50 µg/mL; IC50 (µg/mL), pseudovirus neutralization [32]: 9.7 µg/mL; IC50 (µg/mL), pseudovirus neutralization [33]: > 50 µg/mL; IC50 (µg/mL), pseudovirus neutralization [34]: > 50 µg/mL; IC50 (µg/mL), pseudovirus neutralization [35]: > 50 µg/mL; IC50 (µg/mL), pseudovirus neutralization [36]: 0.058 µg/mL; IC50 (µg/mL), pseudovirus neutralization [37]: 0.015 µg/mL; IC50 (µg/mL), pseudovirus neutralization [38]: > 50 µg/mL; IC50 (µg/mL), pseudovirus neutralization [39]: > 50 µg/mL; IC50 (µg/mL), pseudovirus neutralization [40]: 3.77 µg/mL; IC50 (µg/mL), pseudovirus neutralization [41]: 0.367 µg/mL; IC50 (µg/mL), pseudovirus neutralization [42]: > 50 µg/mL; IC50 (µg/mL), pseudovirus neutralization [43]: > 50 µg/mL; IC50 (µg/mL), pseudovirus neutralization [44]: > 50 µg/mL; IC50 (µg/mL), pseudovirus neutralization [45]: 0.001 µg/mL; IC50 (µg/mL), pseudovirus neutralization [46]: > 50 µg/mL; IC50 (µg/mL), pseudovirus neutralization [47]: > 50 µg/mL; IC50 [48]: > 50 µg/mL; IC50 [49]: > 50 µg/mL; IC50 [50]: 0.484 µg/mL; IC50 [51]: 0.172 µg/mL; IC50 [52]: > 50 µg/mL; IC50, pseudovirus neutralization [53]: > 50 µg/mL; IC50, pseudovirus neutralization [54]: > 50 µg/mL; IC50, pseudovirus neutralization [55]: > 50 µg/mL; IC50, pseudovirus neutralization [56]: > 50 µg/mL; IC50, pseudovirus neutralization [57]: 1.15 µg/mL; IC50, pseudovirus neutralization [58]: 0.174 µg/mL; IC50 (µg/mL), pseudovirus neutralization [59]: 2.75 µg/mL

Q: Which results are given for 4995_P16 (PGT-145) (antibody)?
A: IC50 [3]: > 50 µg/mL; IC50 [4]: 1.05 µg/mL; IC50, single-round pseudovirus neutralization [5]: 0.4 µg/mL; IC50, single-round pseudovirus neutralization [6]: 0.026 µg/mL; IC50 (µg/mL), pseudovirus neutralization [7]: 0.013 µg/mL; IC50, pseudovirus neutralization [8]: > 50 µg/mL; IC50, pseudovirus neutralization [9]: > 50 µg/mL; IC50, pseudovirus neutralization [10]: 1.6 µg/mL; IC50 (µg/mL), pseudovirus neutralization [11]: 3.22 µg/mL; IC50 (µg/mL), pseudovirus neutralization [12]: 3.15 µg/mL; IC50, pseudovirus neutralization [13]: > 50 µg/mL; IC50, pseudovirus neutralization [14]: 20.1 µg/mL; IC50 (µg/mL), pseudovirus neutralization [15]: 0.997 µg/mL; IC50 (µg/mL), pseudovirus neutralization [16]: 1.62 µg/mL; IC50 (µg/mL), pseudovirus neutralization [17]: 0.069 µg/mL; IC50 (µg/mL), pseudovirus neutralization [18]: 1.45 µg/mL; IC50 [19]: 0.032 µg/mL; IC50 (µg/mL), pseudovirus neutralization [20]: > 50 µg/mL; IC50 (µg/mL), pseudovirus neutralization [21]: > 50 µg/mL; IC50 (µg/mL), pseudovirus neutralization [22]: 1.32 µg/mL; IC50 (µg/mL), pseudovirus neutralization [23]: 0.331 µg/mL; IC50, pseudovirus neutralization [24]: > 50 µg/mL; IC50, pseudovirus neutralization [25]: 0.136 µg/mL; IC50 [26]: 0.337 µg/mL; IC50 [27]: 0.488 µg/mL; IC50 [28]: 0.104 µg/mL; IC50 [29]: 7.08 µg/mL; IC50 (µg/mL), pseudovirus neutralization [30]: 1.43 µg/mL; IC50 [31]: 30.4 µg/mL; IC50 (µg/mL), pseudovirus neutralization [32]: 0.128 µg/mL; IC50 (µg/mL), pseudovirus neutralization [33]: > 50 µg/mL; IC50 (µg/mL), pseudovirus neutralization [34]: > 50 µg/mL; IC50 (µg/mL), pseudovirus neutralization [35]: > 50 µg/mL; IC50 (µg/mL), pseudovirus neutralization [36]: 0.235 µg/mL; IC50 (µg/mL), pseudovirus neutralization [37]: 0.028 µg/mL; IC50 (µg/mL), pseudovirus neutralization [38]: 0.484 µg/mL; IC50 (µg/mL), pseudovirus neutralization [39]: 0.23 µg/mL; IC50 (µg/mL), pseudovirus neutralization [40]: 1.76 µg/mL; IC50 (µg/mL), pseudovirus neutralization [41]: 1.36 µg/mL; IC50 (µg/mL), pseudovirus neutralization [42]: 20.9 µg/mL; IC50 (µg/mL), pseudovirus neutralization [43]: 1.87 µg/mL; IC50 (µg/mL), pseudovirus neutralization [44]: 0.552 µg/mL; IC50 (µg/mL), pseudovirus neutralization [45]: 0.006 µg/mL; IC50 (µg/mL), pseudovirus neutralization [46]: 0.967 µg/mL; IC50 (µg/mL), pseudovirus neutralization [47]: > 50 µg/mL; IC50 [48]: 3.22 µg/mL; IC50 [49]: 3.67 µg/mL; IC50 [50]: 0.045 µg/mL; IC50 [51]: 0.023 µg/mL; IC50 [52]: 1.9 µg/mL; IC50, pseudovirus neutralization [53]: 0.56 µg/mL; IC50, pseudovirus neutralization [54]: > 50 µg/mL; IC50, pseudovirus neutralization [55]: 0.006 µg/mL; IC50, pseudovirus neutralization [56]: 10.9 µg/mL; IC50, pseudovirus neutralization [57]: 10.4 µg/mL; IC50, pseudovirus neutralization [58]: 0.025 µg/mL; IC50 (µg/mL), pseudovirus neutralization [59]: 8.01 µg/mL
